Source: patent publication US20230122364A1

Molecular target: prefusion conformation-stabilized SARS-CoV-2 spike ectodomain (S2Pecto) protein (SARS-CoV-2) (UniProt P0DTC2)
Experiment: ELISA on coated S2Pecto

## rCR3022 (recombinant form of the cross-reactive SARS-CoV SRBD mAb CR3022) (antibody)
  EC50: 0.0102 µg/mL
